Key:
[1] = biological target: T66C P388C E109C N331C ClpX^ΔN (E. coli) (UniProt P0A6H1); assay: cross-linking
[2] = biological target: T66C P388C ClpX^ΔN (E. coli) (UniProt P0A6H1); assay: cross-linking
Δ315N ClpX^ΔN (E. coli) = Δ315N ClpX^ΔN (E. coli) (UniProt P0A6H1)
+315N ClpX^ΔN (E. coli) = +315N ClpX^ΔN (E. coli) (UniProt P0A6H1)

T66C P388C E109C N331C ClpX^ΔN (from UniProt P0A6H1 61-423) (enzyme)
percent of the protein as circular hexamer after oxidation [1]: > 90%
stoichiometry N [1]: 6

T66C P388C ClpX^ΔN (from UniProt P0A6H1 61-423) (enzyme)
percent of the protein as disulfide-bonded circular hexamer after oxidation [2]: 75%
stoichiometry N [2]: 6

Δ315N ClpX^ΔN (from UniProt P0A6H1 61-423) (enzyme)
stoichiometry N (Δ315N ClpX^ΔN (E. coli)): 6

+315N ClpX^ΔN (from UniProt P0A6H1 61-423) (enzyme)
stoichiometry N (+315N ClpX^ΔN (E. coli)): 6

From PMC3372766
